B1: EPB41L3 (parent)
chain: FRFAPNHTKELEDKVIELHKSHRG
B2: TRIM43 (parent)
chain: NRFRVEISFHFEVTNHNIRLFEDV
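Further: lentivirally expressed fusions sorted by FACS into six bins by GFP to DsRed ratio, PSI derived from sequencing read proportions per bin multiplied by bin number.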

Variants of: B1
Test: protein stability index of a GFP-peptide fusion (GPS, HEK-293T) (PSI 1-6); higher = more stable
Conditions: c terminus: a fixed tail appended
Work on FRFAPNHTKELEDKVIELHKFHRG yielded a protein stability index of 1.78.
Variant FRFAPNHTKELEDKVIELHKYHRG has a protein stability index of 2.4.
FRFAPNHTKELEDKVIELHKLHRG gave a protein stability index of 1.83.
For FRFAPNHTKELEDKVIELHKAHRG, the protein stability index was 2.47.
Work on FRFAPNHTKELEDKVIELHKNHRG yielded a protein stability index of 2.88.
FRFAPNHTKELEDKVIELHKHHRG showed a protein stability index of 1.71.
FRFAPNHTKELEDKVIELHKCHRG gave a protein stability index of 1.78.
Work on FRFAPNHTKELEDKVIELHKTHRG yielded a protein stability index of 2.47.
For FRFAPNHTKELEDKVIELHKGHRG, the protein stability index was 2.42.
Variant FRFAPNHTKELEDKVIELHKRHRG has a protein stability index of 2.1.
With FRFAPNHTKELEDKVIELHKVHRG the protein stability index was 2.2.
For FRFAPNHTKELEDKVIELHKKHRG, the protein stability index was 1.74.
FRFAPNHTKELEDKVIELHKEHRG showed a protein stability index of 2.9.
FRFAPNHTKELEDKVIELHKQHRG gave a protein stability index of 2.59.
Work on FRFAPNHTKELEDKVIELHKDHRG yielded a protein stability index of 2.56.
Variant FRFAPNHTKELEDKVIELHKMHRG has a protein stability index of 2.14.
With FRFAPNHTKELEDKVIELHKWHRG the protein stability index was 1.41.
In the case of FRFAPNHTKELEDKVIELHKIHRG, the protein stability index is reported as 2.25.
For FRFAPNHTKELEDKVIELHKSHTG, the protein stability index was 2.07.
For FRFAPNHTKELEDKVIELHKSHIG, the protein stability index was 1.72.
FRFAPNHTKELEDKVIELHKSHKG showed a protein stability index of 2.37.
In the case of FRFAPNHTKELEDKVIELHKSHMG, the protein stability index is reported as 1.73.
FRFAPNHTKELEDKVIELHKSHVG showed a protein stability index of 1.83.
Work on FRFAPNHTKELEDKVIELHKSHQG yielded a protein stability index of 2.87.
Work on FRFAPNHTKELEDKVIELHKSHFG yielded a protein stability index of 1.5.
For FRFAPNHTKELEDKVIELHKSHEG, the protein stability index was 3.15.
For FRFAPNHTKELEDKVIELHKSHYG, the protein stability index was 2.78.
FRFAPNHTKELEDKVIELHKSHWG gave a protein stability index of 1.54.
Variant FRFAPNHTKELEDKVIELHKSHDG has a protein stability index of 2.84.
For FRFAPNHTKELEDKVIELHKSHCG, the protein stability index was 2.4.
For FRFAPNHTKELEDKVIELHKSHSG, the protein stability index was 1.85.
Work on FRFAPNHTKELEDKVIELHKSHGG yielded a protein stability index of 3.6.
FRFAPNHTKELEDKVIELHKSHHG gave a protein stability index of 1.92.
FRFAPNHTKELEDKVIELHKSHLG gave a protein stability index of 1.92.
In the case of FRFAPNHTKELEDKVIELHKSHPG, the protein stability index is reported as 1.93.
In the case of FRFAPNHTKELEDKVIELHKSHNG, the protein stability index is reported as 2.
Variant FRFAPNHTKELEDKVIELHKSHAG has a protein stability index of 2.07.
Work on FRFAPNHTKELEDKVIELHKSHRP yielded a protein stability index of 2.19.
For FRFAPNHTKELEDKVIELHKSHRI, the protein stability index was 2.04.
FRFAPNHTKELEDKVIELHKSHRH showed a protein stability index of 1.97.
In the case of FRFAPNHTKELEDKVIELHKSHRW, the protein stability index is reported as 1.84.
FRFAPNHTKELEDKVIELHKSHRM gave a protein stability index of 2.53.
With FRFAPNHTKELEDKVIELHKSHRV the protein stability index was 1.74.
Work on FRFAPNHTKELEDKVIELHKSHRK yielded a protein stability index of 2.06.
FRFAPNHTKELEDKVIELHKSHRF showed a protein stability index of 2.31.
Variant FRFAPNHTKELEDKVIELHKSHRA has a protein stability index of 1.93.
FRFAPNHTKELEDKVIELHKSHRL showed a protein stability index of 2.02.
Work on FRFAPNHTKELEDKVIELHKSHRD yielded a protein stability index of 1.75.
With FRFAPNHTKELEDKVIELHKSHRR the protein stability index was 2.05.
FRFAPNHTKELEDKVIELHKSHRS showed a protein stability index of 1.94.
For FRFAPNHTKELEDKVIELHKSHRQ, the protein stability index was 2.74.
Work on FRFAPNHTKELEDKVIELHKSHRN yielded a protein stability index of 2.45.
FRFAPNHTKELEDKVIELHKSHRE showed a protein stability index of 2.34.
With FRFAPNHTKELEDKVIELHKSHRC the protein stability index was 1.36.
In the case of FRFAPNHTKELEDKVIELHKSHRY, the protein stability index is reported as 1.56.
FRFAPNHTKELEDKVIELHKSHRT gave a protein stability index of 1.73.
FRFAPNHTKELEDKVIELHRSHRG gave a protein stability index of 1.39.
For FRFAPNHTKELEDKVIELHSSHRG, the protein stability index was 1.67.
For FRFAPNHTKELEDKVIELHWSHRG, the protein stability index was 1.54.
FRFAPNHTKELEDKVIELHTSHRG showed a protein stability index of 2.12.
For FRFAPNHTKELEDKVIELHVSHRG, the protein stability index was 2.71.
For FRFAPNHTKELEDKVIELHYSHRG, the protein stability index was 2.95.
Variant FRFAPNHTKELEDKVIELHKSNRG has a protein stability index of 2.34.
Work on FRFAPNHTKELEDKVIELHKSSRG yielded a protein stability index of 2.4.
With FRFAPNHTKELEDKVIELHKSQRG the protein stability index was 2.01.
FRFAPNHTKELEDKVIELHKSMRG gave a protein stability index of 1.55.
With FRFAPNHTKELEDKVIELHKSLRG the protein stability index was 1.63.
Variant FRFAPNHTKELEDKVIELHKSIRG has a protein stability index of 1.68.
Variant FRFAPNHTKELEDKVIELHKSVRG has a protein stability index of 1.67.
With FRFAPNHTKELEDKVIELHKSERG the protein stability index was 2.52.
In the case of FRFAPNHTKELEDKVIELHKSCRG, the protein stability index is reported as 1.95.
Variant FRFAPNHTKELEDKVIELHKSRRG has a protein stability index of 1.68.
In the case of FRFAPNHTKELEDKVIELHKSTRG, the protein stability index is reported as 1.76.
FRFAPNHTKELEDKVIELHKSARG gave a protein stability index of 1.98.
In the case of FRFAPNHTKELEDKVIELHKSFRG, the protein stability index is reported as 1.92.
In the case of FRFAPNHTKELEDKVIELHKSPRG, the protein stability index is reported as 2.17.
With FRFAPNHTKELEDKVIELHKSYRG the protein stability index was 2.96.
Variant FRFAPNHTKELEDKVIELHKSDRG has a protein stability index of 2.48.
Variant FRFAPNHTKELEDKVIELHKSWRG has a protein stability index of 1.65.
FRFAPNHTKELEDKVIELHKSGRG showed a protein stability index of 1.91.
FRFAPNHTKELEDKVIELHKSKRG showed a protein stability index of 1.4.

Variants of: B2
Test: as above
Conditions: c terminus: a fixed tail appended
With NQFRVEISFHFEVTNHNIRLFEDV the protein stability index was 3.46.
NVFRVEISFHFEVTNHNIRLFEDV showed a protein stability index of 1.92.
Work on NWFRVEISFHFEVTNHNIRLFEDV yielded a protein stability index of 2.21.
Variant NSFRVEISFHFEVTNHNIRLFEDV has a protein stability index of 1.5.
With NIFRVEISFHFEVTNHNIRLFEDV the protein stability index was 3.39.
Work on NPFRVEISFHFEVTNHNIRLFEDV yielded a protein stability index of 2.38.
Work on NDFRVEISFHFEVTNHNIRLFEDV yielded a protein stability index of 2.46.
With RRFRVEISFHFEVTNHNIRLFEDV the protein stability index was 2.37.
TRFRVEISFHFEVTNHNIRLFEDV showed a protein stability index of 1.62.
With LRFRVEISFHFEVTNHNIRLFEDV the protein stability index was 3.45.
CRFRVEISFHFEVTNHNIRLFEDV gave a protein stability index of 3.11.
With DRFRVEISFHFEVTNHNIRLFEDV the protein stability index was 3.89.
Work on QRFRVEISFHFEVTNHNIRLFEDV yielded a protein stability index of 3.07.

— the supplement of paper PMC10567573
